Literature values, collected in PMC5158201.

Target: decoy IL-1 receptor (IL-1RII) (Homo sapiens) (UniProt P27930)
UniProt P27930, sequence (P27930 14-398): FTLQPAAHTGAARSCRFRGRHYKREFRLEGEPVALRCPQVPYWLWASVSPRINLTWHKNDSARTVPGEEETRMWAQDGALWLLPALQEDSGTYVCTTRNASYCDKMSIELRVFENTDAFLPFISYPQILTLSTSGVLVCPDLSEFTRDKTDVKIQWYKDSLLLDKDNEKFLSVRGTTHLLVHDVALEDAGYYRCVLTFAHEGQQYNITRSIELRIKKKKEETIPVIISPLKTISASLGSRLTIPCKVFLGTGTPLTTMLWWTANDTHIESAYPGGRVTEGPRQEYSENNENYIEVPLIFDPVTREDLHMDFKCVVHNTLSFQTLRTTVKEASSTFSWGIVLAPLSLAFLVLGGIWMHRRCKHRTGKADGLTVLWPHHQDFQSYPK

- Kd: 0.03 nM
Substance: IL-1α (from UniProt P01583)
